The values that follow come from patent publication US20260139013A1 (VIB VZW, published 2026).

This series deals with the molecule itself. In words: cryo-EM structure of the self-assembled fiber (subunit to subunit).

B1: Ena1B-HI-Rubredoxin (other)
chain: MGNCSTNLSCCANGQKTIVQDKVCIDWTAAATAAIIYADNISQDIYASGYLKVDTGTGPVTIVFYSGGVTGTAVETIVVATGSSASFTVRRFDTVTILGGGKYVCTVCGYEYDPAEGDPDNGVKPGTSFDDLPADWVCPVCGAPKSEFEAAGAAETGEFCMTIRYTLS
notes: It was made in E. coli and studied as a self-assembled helical fiber of many identical subunits; The rubredoxin centre carried mostly zinc and some iron; also called Ena-HI-Rubredoxin; Ena1B-Rubredoxin-HI
For the protein B1, the binding result is recorded as “binds”.
